Source: publication PMC6669743

Molecular target: HAdV-5T* virion (mutant HAdV-5 unable to bind to human or murine FX) (human adenovirus 5) (UniProt P04133)
Assay: co-sedimentation; 2 x 10^11 vp of virus incubated with 250 uL C57BL/6 mouse serum for 30 min at 37 C; virions and bound proteins purified by CsCl gradient ultracentrifugation without cross-linking; LC-MS/MS with label-free quantification normalised to hexon

complement component C3 (mouse) (from UniProt P01027) (natural protein)
fold change of bound amount against HAdV-5: 40.2 fold

complement component C4b (mouse) (from UniProt P01029) (natural protein)
fold change of bound amount against HAdV-5: 87.8 fold
